Here are results for one substance from US20150376275A1.

Experiment [1] has as its target KIR (KIR2D receptors; KIR2DL1 and 2/3) on the patients' NK cells. As to the kind of experiment: receptor occupancy on patients' NK cells by flow cytometry after a single i.v. dose of 0.0003 mg/kg (AML dose-escalation trial). On the technique in general: In flow cytometry, cells or beads pass a laser one at a time.
For experiment [2] the target is unchanged. Nature of the experiment: receptor occupancy on patients' NK cells by flow cytometry after a single i.v. dose of 0.003 mg/kg (AML dose-escalation trial).

On to “fully human anti-KIR2DL1, 2 and 3 monoclonal antibody 1-7F9”, for which the results for the KIR occupancy in experiment [1] and in experiment [2] were 50% and 90%, respectively.
